Molecular target: T1, soluble human IL-4Rα (sIL-4Rα; PEPRO TECH, Catalog Number: 200-04R) (human, UniProt P24394 26-232)
T1 construct: Bought protein; also called shIL-4Rα; soluble hIL-4 Rα
T1 sequence: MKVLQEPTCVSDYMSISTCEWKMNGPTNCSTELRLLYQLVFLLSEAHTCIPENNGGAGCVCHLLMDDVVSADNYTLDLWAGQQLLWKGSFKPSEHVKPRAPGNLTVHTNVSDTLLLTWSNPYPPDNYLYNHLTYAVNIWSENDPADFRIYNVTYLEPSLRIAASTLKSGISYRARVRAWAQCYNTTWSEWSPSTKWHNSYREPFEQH
Assay: ELISA, coated sIL-4Rα, culture supernatant
Procedure: Sample to be tested: For each antibody of the present invention, 10 μl and 2 μl of the culture supernatant of Expi293 cells expressing the antibody after transient transfection (the medium was Expi293 Expression Medium, Invitrogen, Catalog Number: A1435102; suspension culture was performed for 4 days at 100 rpm in a 8% CO2 incubator) were respectively added to 990 μl and 998 μl of PBS to prepare antibody samples to be tested of 1:100 and 1:500 dilutions.
100 μl of 100 μg/ml sIL-4Rα solution was added to 9.90 ml of PBS, mixed up and down, and then an antigen coating buffer of 1.0 μg/ml was obtained. The prepared antigen coating buffer was added to a 96-well ELISA plate (Corning) with a volume of 100 μl per well. The 96-well ELISA plate was incubated overnight in a refrigerator at 4° C. On the next day, the solution therein was discarded, and PBS containing 2% BSA was added to the 96-well ELISA plate row by row with a volume of 300 μl per well. The 96-well ELISA plate was incubated for 2 hours in a refrigerator at 4° C. Then the PBS containing 2% BSA was discarded and the plate was washed 3 times with PBST. Diluted antibodies to be tested were sequentially added to the corresponding wells, while the normal cell culture supernatants, as negative control samples, were added too. Three duplicate wells were made for each sample with a volume of 100 μl per well. The ELISA plate was wrapped with preservative film (or covered) and incubated for 1 h at 10° C. in a constant temperature incubator. Subsequently, the 96-well ELISA plate was taken out, and the solution therein was discarded. After washing with PBST for 3 times, TMB solution (Solarbio, Catalog Number: PR1200) was added to the 96-well ELISA plate row by row with a volume of 100 μl per well. The 96-well ELISA plate was placed at room temperature for 5 minutes, and 2 M H2SO4 solution was added in immediately to terminate the reaction. The 96-well ELISA plate was placed in flexstation 3 (Molecular Devices), the values of OD450 were read, and the data were collected, calculated and analyzed. Results were expressed relative to the affinity of control antibody 1.

Binder | OD450/OD450 Control antibody 1
L1001H1000 (antibody, V domains shown) VH: EVQLVQSGGGLVHPGGSLRLSCAGSGFTFSRNAMFWVRQAPGKGLEWVSGIGTGGATNYADSVKGRFTISRDNAKNSLYLQMNSLRAEDMAVYYCARGRYYFDYWGQGTLVTVSS VL: EIVLTQSPGTLSLSPGERATLSCRASQSVSNSYLAWYQQKPGQAPRLLIYGASSRAPGIPDRFSGSGSGTDFTLTISRLEPEDFAVYYCQQYDHSAGWTFGQGTKVEIK | 1.56 ratio to control antibody 1
L1020H1000 (antibody, V domains shown) VH: EVQLVQSGGGLVHPGGSLRLSCAGSGFTFSRNAMFWVRQAPGKGLEWVSGIGTGGATNYADSVKGRFTISRDNAKNSLYLQMNSLRAEDMAVYYCARGRYYFDYWGQGTLVTVSS VL: EIVLTQSPGTLSLSPGERATLSCRASQSVSSSYLAWYQQKPGQAPRLLIYGASSRATGIPDRFSGSGSGTDFTLTISRLEPEDFAVYYCQQYDHSAGWTFGQGTKVEIK | 2.27 ratio to control antibody 1
L1012H1031 (antibody, V domains shown) VH: EVQLVESGGGLVQPGGSLRLSCAASGFTFSRNAMFWVRQAPGKGLEWVSGIGTGGATSYADSVKGRFTISRDNAKNSLYLQMNSLRAEDTAVYYCARGRYYFDYWGQGTLVTVSS VL: not shown | 0.16 ratio to control antibody 1
L1008H1000 (antibody, V domains shown) VH: EVQLVQSGGGLVHPGGSLRLSCAGSGFTFSRNAMFWVRQAPGKGLEWVSGIGTGGATNYADSVKGRFTISRDNAKNSLYLQMNSLRAEDMAVYYCARGRYYFDYWGQGTLVTVSS VL: not shown | 0.9 ratio to control antibody 1
L1012H1007 (antibody, V domains shown) VH: EVQLVQSGGGLVHPGGSLRLSCAGSGFTFSRNAMFWVRQAPGKGLEWVSGIGTGGATSYADSVKGRFTISRDNAKNSLYLQMNSLRAEDMAVYYCARGRYYFDYWGQGTLVTVSS VL: not shown | 0.4 ratio to control antibody 1
L1013H1000 (antibody, V domains shown) VH: EVQLVQSGGGLVHPGGSLRLSCAGSGFTFSRNAMFWVRQAPGKGLEWVSGIGTGGATNYADSVKGRFTISRDNAKNSLYLQMNSLRAEDMAVYYCARGRYYFDYWGQGTLVTVSS VL: EIVLTQSPGTLSLSPGERATLSCRASQSVSNSYLAWYQQKPGQAPRLLIFGASSRATGIPDRFSGSGSGTDFTLTISRLEPEDFAVYYCQQYDHSPPWTFGQGTKVEIK | 0.24 ratio to control antibody 1
L1011H1000 (antibody, V domains shown) VH: EVQLVQSGGGLVHPGGSLRLSCAGSGFTFSRNAMFWVRQAPGKGLEWVSGIGTGGATNYADSVKGRFTISRDNAKNSLYLQMNSLRAEDMAVYYCARGRYYFDYWGQGTLVTVSS VL: EIVLTQSPGTLSLSPGERATLSCRASQSVSNSYLAWYQQKPGQAPRLLIFGASSRAPGIPDRFSGSGSGTDFTLTISRLEPEDFAVYYCQQYGSSPPWTFGQGTKVEIK | 0.9 ratio to control antibody 1
L1007H1000 (antibody, V domains shown) VH: EVQLVQSGGGLVHPGGSLRLSCAGSGFTFSRNAMFWVRQAPGKGLEWVSGIGTGGATNYADSVKGRFTISRDNAKNSLYLQMNSLRAEDMAVYYCARGRYYFDYWGQGTLVTVSS VL: not shown | 0.8 ratio to control antibody 1
L1019H1000 (antibody, V domains shown) VH: EVQLVQSGGGLVHPGGSLRLSCAGSGFTFSRNAMFWVRQAPGKGLEWVSGIGTGGATNYADSVKGRFTISRDNAKNSLYLQMNSLRAEDMAVYYCARGRYYFDYWGQGTLVTVSS VL: EIVLTQSPGTLSLSPGERATLSCRASQSVSNSYLAWYQQKPGQAPRLLIFGASSRATGIPDRFSGSGSGTDFTLTISRLEPEDFAVYYCQQYDHSAGWTFGQGTKVEIK | 1.79 ratio to control antibody 1
L1016H1000 (antibody, V domains shown) VH: EVQLVQSGGGLVHPGGSLRLSCAGSGFTFSRNAMFWVRQAPGKGLEWVSGIGTGGATNYADSVKGRFTISRDNAKNSLYLQMNSLRAEDMAVYYCARGRYYFDYWGQGTLVTVSS VL: EIVLTQSPGTLSLSPGERATLSCRASQSVSSSYLAWYQQKPGQAPRLLIFGASSRATGIPDRFSGSGSGTDFTLTISRLEPEDFAVYYCQQYDHSPPWTFGQGTKVEIK | 0.27 ratio to control antibody 1
L1012H1029 (antibody, V domains shown) VH: EVQLVESGGGLVQPGGSLRLSCAASGFTFSRNAMFWVRQAPGKGLEWVSGIGTGGATSYADSVKGRFTISRDNAKNSLYLQMNSLRAEDMAVYYCARGRYYFPWWGQGTLVTVSS VL: not shown | 0.11 ratio to control antibody 1
L1009H1000 (antibody, V domains shown) VH: EVQLVQSGGGLVHPGGSLRLSCAGSGFTFSRNAMFWVRQAPGKGLEWVSGIGTGGATNYADSVKGRFTISRDNAKNSLYLQMNSLRAEDMAVYYCARGRYYFDYWGQGTLVTVSS VL: not shown | 0.64 ratio to control antibody 1
L1017H1000 (antibody, V domains shown) VH: EVQLVQSGGGLVHPGGSLRLSCAGSGFTFSRNAMFWVRQAPGKGLEWVSGIGTGGATNYADSVKGRFTISRDNAKNSLYLQMNSLRAEDMAVYYCARGRYYFDYWGQGTLVTVSS VL: not shown | 0.49 ratio to control antibody 1
L1010H1000 (antibody, V domains shown) VH: EVQLVQSGGGLVHPGGSLRLSCAGSGFTFSRNAMFWVRQAPGKGLEWVSGIGTGGATNYADSVKGRFTISRDNAKNSLYLQMNSLRAEDMAVYYCARGRYYFDYWGQGTLVTVSS VL: not shown | 1 ratio to control antibody 1
L1012H1000 (antibody, V domains shown) VH: EVQLVQSGGGLVHPGGSLRLSCAGSGFTFSRNAMFWVRQAPGKGLEWVSGIGTGGATNYADSVKGRFTISRDNAKNSLYLQMNSLRAEDMAVYYCARGRYYFDYWGQGTLVTVSS VL: not shown | 1.22 ratio to control antibody 1
L1015H1000 (antibody, V domains shown) VH: EVQLVQSGGGLVHPGGSLRLSCAGSGFTFSRNAMFWVRQAPGKGLEWVSGIGTGGATNYADSVKGRFTISRDNAKNSLYLQMNSLRAEDMAVYYCARGRYYFDYWGQGTLVTVSS VL: EIVLTQSPGTLSLSPGERATLSCRASQSVSSSYLAWYQQKPGQAPRLLIFGASSRAPGIPDRFSGSGSGTDFTLTISRLEPEDFAVYYCQQYDHSPPWTFGQGTKVEIK | 0.67 ratio to control antibody 1
L1020H1027 (antibody, V domains shown) VH: EVQLVESGGGLVHPGGSLRLSCAASGFTFSRNAMFWVRQAPGKGLEWVSGIGTGGATSYADSVKGRFTISRDNAKNSLYLQMNSLRAEDTAVYYCARGRYYFPWWGQGTLVTVSS VL: EIVLTQSPGTLSLSPGERATLSCRASQSVSSSYLAWYQQKPGQAPRLLIYGASSRATGIPDRFSGSGSGTDFTLTISRLEPEDFAVYYCQQYDHSAGWTFGQGTKVEIK | 0.4 ratio to control antibody 1
L1012H1020 (antibody, V domains shown) VH: EVQLVQSGGGLVHPGGSLRLSCAGSGFTFSRNAMFWVRQAPGKGLEWVSGIGTGGATSYADSVKGRFTISRDNAKNSLYLQMNSLRAEDMAVYYCARGRYYFPWWGQGTLVTVSS VL: not shown | 0.11 ratio to control antibody 1
L1020H1020 (antibody, V domains shown) VH: EVQLVQSGGGLVHPGGSLRLSCAGSGFTFSRNAMFWVRQAPGKGLEWVSGIGTGGATSYADSVKGRFTISRDNAKNSLYLQMNSLRAEDMAVYYCARGRYYFPWWGQGTLVTVSS VL: EIVLTQSPGTLSLSPGERATLSCRASQSVSSSYLAWYQQKPGQAPRLLIYGASSRATGIPDRFSGSGSGTDFTLTISRLEPEDFAVYYCQQYDHSAGWTFGQGTKVEIK | 0.26 ratio to control antibody 1
L1020H1016 (antibody, V domains shown) VH: EVQLVQSGGGLVHPGGSLRLSCAGSGFTFSRNAMFWVRQAPGKGLEWVSGIGTGGATNYADSVKGRFTISRDNAKNSLYLQMNSLRAEDMAVYYCARGRYYFPWWGQGTLVTVSS VL: EIVLTQSPGTLSLSPGERATLSCRASQSVSSSYLAWYQQKPGQAPRLLIYGASSRATGIPDRFSGSGSGTDFTLTISRLEPEDFAVYYCQQYDHSAGWTFGQGTKVEIK | 0.8 ratio to control antibody 1
L1020H1007 (antibody, V domains shown) VH: EVQLVQSGGGLVHPGGSLRLSCAGSGFTFSRNAMFWVRQAPGKGLEWVSGIGTGGATSYADSVKGRFTISRDNAKNSLYLQMNSLRAEDMAVYYCARGRYYFDYWGQGTLVTVSS VL: EIVLTQSPGTLSLSPGERATLSCRASQSVSSSYLAWYQQKPGQAPRLLIYGASSRATGIPDRFSGSGSGTDFTLTISRLEPEDFAVYYCQQYDHSAGWTFGQGTKVEIK | 0.4 ratio to control antibody 1

Source: US20210079088A1 (published 2021)
